Measurements published in patent publication US20230277633.

Legend:
[1] = test system: human IVIg (an intravenous human immunoglobulin)
[2] = target: human IVIg (an intravenous human immunoglobulin); remark: listed apart in the source

| Molecule | enzymatic digestion of human IVIg in vitro, SDS-PAGE (10 ug IVIg per 1 Unit IdeZ, 37 C, 1 h) [1] | enzymatic digestion of human IVIg in vitro, SDS-PAGE (enzyme:IVIg 1:200 by mass, 37 C, 1 h) [2] |
| --- | --- | --- |
| protease IdeZ (Genovis) | all the three proteases can effectively cleave human IVIg | – |
| protease IdeE (protein) DDYQRNATEAYAKEVPHQITSVWTKGVTPLTPEQFRYNNEDVIHAPYLAHQGWYDITKAFDGKDNLLCGAATAGNMLHWWFDQNKTEIEAYLSKHPEKQKIIFNNQELFDLKAAIDTKDSQTNSQLFNYFRDKAFPNLSARQLGVMPDLVLDMFINGYYLNVFKTQSTDVNRPYQDKDKRGGIFDAVFTRGDQTTLLTARHDLKNKGLNDISTIIKQELTEGRALALSHTYANVSISHVINLWGADFNAEGNLEAIYVTDSDANASIGMKKYFVGINAHRHVAISAKKIEGENIGAQVLGLFTLSSGKDIWQKLSHHHHHH | – | all the three proteases can effectively cleave human IVIg |
| protease IdeS (protein) DSFSANQEIRYSEVTPYHVTSVWTKGVTPPANFTQGEDVFHAPYVANQGWYDITKTFNGKDDLLCGAATAGNMLHWWFDQNKDQIKRYLEEHPEKQKINFNGEQMFDVKEAIDTKNHQLDSKLFEYFKEKAFPYLSTKHLGVFPDHVIDMFINGYRLSLTNHGPTPVKEGSKDPRGGIFDAVFTRGDQSKLLTSRHDFKEKNLKEISDLIKKELTEGKALGLSHTYANVRINHVINLWGADFDSNGNLKAIYVTDSDSNASIGMKKYFVGVNSAGKVAISAKEIKEDNIGAQVLGLFTLSTGQDSWNQTNHHHHHHSSG | – | all the three proteases can effectively cleave human IVIg |
